According to patent publication US20140044730A1 (Regeneron, published 2014):
Residue numbers refer to the chain shown, from its start.

B1: Parental 300N (antibody, V domains shown)
VH: EMQLVESGGGLVQPGGSLRLSCAASGFTFSSHWMKWVRQAPGKGLEWVANINQDGSEKYYVDSVKGRFTISRDNAKNSLFLQMNSLRAEDTAVYYCARDIVLMVYDMDYYYYGMDVWGQGTTVTVSS
VL: not shown
notes: also called mAb 300N
B2: VH-V104H (antibody, V domains shown)
VH: B1 VH with V104H
VL: not shown
notes: His variant of 300N
B3: VH-Y112H (antibody, V domains shown)
VH: B1 VH with Y112H
VL: not shown
notes: His variant of 300N
B4: 300N(v1) (antibody, IgG1, V domains shown)
VH: B1 VH
VL: not shown

What was measured:
[1] = target: T1, human PCSK9 with a C-terminal myc-myc-hexahistidine tag (human, UniProt Q8NBP7 31-692, limits assumed); assay: SPR 25C pH 5.75, mAb captured;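 further: biacore surface with anti-human Fc antibody capturing the antibodies, PCSK9 as analyte, one-to-one kinetic fit, KD as kd over ka, half-life derived from kd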
T1 construct: also called hPCSK9-mmH; hPCSK9-mmh; not shown: C-terminal myc-myc-hexahistidine tag

[2] = target: T1, human PCSK9 with a C-terminal …; assay: SPR 25C, mAb captured;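 further: biacore CM4 surface bearing anti-human Fc antibody capturing the mAbs, PCSK9 binding and release rates fitted with a one-to-one model, KD and half-life derived from those rates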
[3] = target: T1, human PCSK9 with a C-terminal …; assay: SPR 25C pH 7.2, mAb captured;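 further: biacore SPR, antibodies captured on anti-human Fc CM4 chip with PCSK9 flowed as analyte, rate constants from a one-to-one kinetic fit, KD and half-life derived from them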
[4] = target: human PCSK9 with a C-terminal myc-myc hexahistidine tag and a D374Y mutation (human, UniProt Q8NBP7 31-692, limits assumed); assay: cell-based or functional assay
[5] = target: recombinant cynomolgus monkey PCSK9 with a C-terminal myc-myc hexahistidine tag (cynomolgus monkey, UniProt A8T662 31-692 (Macaca nemestrina entry), limits assumed); assay: cell-based or functional assay
[6] = target: T1, human PCSK9 with a C-terminal …; assay: blocking ELISA pH 7.2, 500 pM hPCSK9-mmH vs coated hLDLR EGFA-hFc, exp #2
Excerpt: (§1) The equilibrated sample solutions were then transferred to the LDLR EGFA-hFc coated plate prepared as described above.

[7] = target: T1, human PCSK9 with a C-terminal …; assay: blocking ELISA pH 7.2, 500 pM hPCSK9-mmH vs coated hLDLR EGFA-hFc, exp #1
Excerpt: as §1

[8] = target: T1, human PCSK9 with a C-terminal …; assay: blocking ELISA pH 5.75, 500 pM hPCSK9-mmH vs coated hLDLR EGFA-hFc
Description: (§2) Briefly, hLDLR EGFA-hFc was coated at 2 μg/mL in PBS on a 96-well microtiter plate overnight at 4° C. followed by blocking with a solution of 0.5% (w/v) BSA in PBS.
(§3) The equilibrated sample solutions were then transferred to a LDLR EGFA-hFc coated plate.

[9] = target: T1, human PCSK9 with a C-terminal …; assay: SPR 25C pH 7.4, purified mAb captured
[10] = target: T1, human PCSK9 with a C-terminal …; assay: SPR 25C pH 6.0, purified mAb captured
[11] = target: T1, human PCSK9 with a C-terminal …; assay: blocking ELISA pH 7.2, 500 pM hPCSK9-mmH vs coated hLDLR EGFA-hFc
Description: as §2, §3

[12] = target: T1, human PCSK9 with a C-terminal …; assay: cell-based or functional assay
[13] = target: T1, human PCSK9 with a C-terminal …; assay: blocking ELISA, hPCSK9-mmH vs coated hLDLR EGFA-hFc
Description: as §2, §3

[14] = target: T1, human PCSK9 with a C-terminal …; assay: SPR 25C, purified mAb captured
Description: A Biacore CM4 sensor chip was derivatized with a monoclonal mouse anti-human Fc antibody to capture human antibodies. The histidine substitution variant anti-PCSK9 antibodies were captured onto the anti-human Fc sensor surface from culture medium after transient expression in Chinese hamster ovary (CHO) cells. […] Kinetic association (kₐ) and dissociation (kd) rate constants were determined by processing and fitting the data to a 1:1 binding model using Scrubber 2.0 curve fitting software. Binding dissociation equilibrium constants (KD) and dissociative half-lives (t_{1/2}) were calculated from the kinetic rate constants as: KD (M)=kd/kₐ; and t_{1/2} (min)=(In2/(60*kd).
Also included in these experiments were several control/comparator antibodies. All measurements were taken at 25° C.

| Binder | Kd [1] [nM] | t½ [1] [min] | KD ratio pH 5.75/pH 7.2 [2] | t½ ratio pH 5.75/pH 7.2 [2] | Kd [3] [nM] | t½ [3] [min] | IC50, LDL uptake in HepG2 cells, 2 nM hPCSK9-D374Y-mmH [4] [nM] | IC50, LDL uptake in HepG2 cells, 50 nM MfPCSK9-mmH [5] [nM] | IC50 [7] [nM] | also measured |
| --- | --- | --- | --- | --- | --- | --- | --- | --- | --- | --- |
| B1 | 0.999 | 13 | 1.15 | 0.26 | 0.865 | 48 | 1.2 | 10 | 0.226 | IC50 [6]: 0.153 nM |
| B2 | 47.6 | 0.4 | 8.51 | 0.04 | 5.6 | 11 | 4.7 | 15.8 | 0.331 | – |
| B3 | 55.7 | 0.04 | 4.52 | 0.01 | 12.3 | 5 | 4.7 | 21.2 | 0.506 | – |
| B4 | – | – | – | – | – | – | – | – | – | IC50 [8]: 0.266 nM; Kd [9]: 0.507 nM; koff [9]: 7.03e-05 s⁻¹; kon [9]: 139000 M⁻¹ s⁻¹; t½ [9]: 164 min; Kd [10]: 1.18 nM; koff [10]: 0.000304 s⁻¹; kon [10]: 257000 M⁻¹ s⁻¹; t½ [10]: 38 min; IC50 [11]: 0.19 nM; IC50, LDL uptake in HepG2 cells, 100 nM hPCSK9-mmH [12]: 28 nM; IC50 ratio (pH 5.75/pH 7.2) [13]: 1.4; KD ratio pH 6.0/pH 7.4 [14]: 2.33; ka ratio pH 6.0/pH 7.4 [14]: 1.85; kd ratio pH 6.0/pH 7.4 [14]: 4.33; t½ ratio pH 6.0/pH 7.4 [14]: 0.23 |
